Where a chain is given by its changes, count along the chain named.
B1: Clone C VNAR-hFc fusion (Fc fusion, not shown: a dimerising Fc or GST)
chain: ARVDQTPQTITKETGESLTINCVLRDSNCALSSTYWYRKKSGSTNEENISKGGRYVETVNSGSKSFSLRINDLTVEDSGTYRCNVVQYPSYNNYFWCDVYGDGTAVTVN
notes: bivalent VNAR-Fc; also called Clone C-hFc
B2: Clone C variant 13 VNAR-hFc (Fc fusion, not shown: a dimerising Fc or GST)
chain: B1 chain with S90Q, Y91Q, N92D
notes: also called Clone C v13; Clone C var; 13
B3: 8D3 antibody (anti-mouse TfR-1 control; 8D3-hFc formatted antibody) (antibody, V domains shown)
VH: EVQLVESGGGLVQPGNSLTLSCVASGFTFSNYGMHWIRQAPKKGLEWIAMIYYDSSKMNYADTVKGRFTISRDNSKNTLYLEMNSLRSEDTAMYYCAVPTSHYVVDVWGQGVSVTVSS
VL: DIQMTQSPASLSASLEEIVTITCQASQDIGNWLAWYQQKPGKSPQLLIYGATSLADGVPSRFSGSRSGTQFSLKISRVQVEDIGIYYCLQAYNTPWTFGGGTKLELK

Legend:
Assay in all cases: FACS, transfected Expi293 cells
[1] = target: T1, WT mTfR-1 expressed on Expi293 cells (mouse, UniProt Q62351 1-763)
T1 construct: whole, on cells
Experimental: (§1) Transfected Expi293 cells were harvested and 2×10⁵ cells were transferred into V-bottom 96-well plate for staining. The cells were blocked in PBS containing 1% BSA (FACS buffer) for 10 min on ice, centrifuged to remove the buffer and 1 μl of 8D3-hFc formatted antibody, Clone C-hFc or Clone C variants 18 and 13 (Table 1), all at 1 mg/ml, was added to the wells. The cells were co-stained with mouse Tf-Alexa647 (Jackson ImmunoResearch). After 30 minutes on ice, the cells were washed and incubated with anti-hFc-PE (eBioscience) for 20 minutes on ice, washed again and resuspended in […] of FACS buffer containing 5 μl of propidium iodide (PI) to exclude dead cells from the analysis. The percentage of double-positive cells that stained with mTf and the tested antibody was determined on a CytoFlex cytometer (Beckman Coulter). The percentage of cells in the double positive quadrant (Q2) for WT mTfR-1 was used for normalization.

[2] = target: T2, mTfR-1 Q193A on Expi293 cells (mouse, UniProt Q62351 1-763)
T2 construct: whole, on cells
Experimental: as §1

[3] = target: T3, mTfR-1 V194A on Expi293 cells (mouse, UniProt Q62351 1-763)
T3 construct: whole, on cells
Experimental: as §1

[4] = target: T4, mTfR-1 K195A on Expi293 cells (mouse, UniProt Q62351 1-763)
T4 construct: whole, on cells
Experimental: as §1

[5] = target: T5, mTfR-1 S196A on Expi293 cells (mouse, UniProt Q62351 1-763)
T5 construct: whole, on cells
Experimental: as §1

[6] = target: T6, mTfR-1 S197A on Expi293 cells (mouse, UniProt Q62351 1-763)
T6 construct: whole, on cells
Experimental: as §1

[7] = target: T7, mTfR-1 G199A on Expi293 cells (mouse, UniProt Q62351 1-763)
T7 construct: whole, on cells
Experimental: as §1

[8] = target: T8, mTfR-1 Q200A on Expi293 cells (mouse, UniProt Q62351 1-763)
T8 construct: whole, on cells
Experimental: as §1

[9] = target: T9, mTfR-1 M202A on Expi293 cells (mouse, UniProt Q62351 1-763)
T9 construct: whole, on cells
Experimental: as §1

[10] = target: T10, mTfR-1 K226A on Expi293 cells (mouse, UniProt Q62351 1-763)
T10 construct: whole, on cells
Experimental: as §1

[11] = target: T11, mTfR-1 P227A on Expi293 cells (mouse, UniProt Q62351 1-763)
T11 construct: whole, on cells
Experimental: as §1

[12] = target: T12, mTfR-1 T228A on Expi293 cells (mouse, UniProt Q62351 1-763)
T12 construct: whole, on cells
Experimental: as §1

[13] = target: T13, mTfR-1 V230A on Expi293 cells (mouse, UniProt Q62351 1-763)
T13 construct: whole, on cells
Experimental: as §1

[14] = target: T14, mTfR-1 S231A on Expi293 cells (mouse, UniProt Q62351 1-763)
T14 construct: whole, on cells
Experimental: as §1

[15] = target: T15, mTfR-1 N253A on Expi293 cells (mouse, UniProt Q62351 1-763)
T15 construct: whole, on cells
Experimental: as §1

[16] = target: T16, mTfR-1 S255A on Expi293 cells (mouse, UniProt Q62351 1-763)
T16 construct: whole, on cells
Experimental: as §1

[17] = target: T17, mTfR-1 Q274A on Expi293 cells (mouse, UniProt Q62351 1-763)
T17 construct: whole, on cells
Experimental: as §1

[18] = target: T18, mTfR-1 S275A on Expi293 cells (mouse, UniProt Q62351 1-763)
T18 construct: whole, on cells
Experimental: as §1

[19] = target: T19, mTfR-1 I279A on Expi293 cells (mouse, UniProt Q62351 1-763)
T19 construct: whole, on cells
Experimental: as §1

[20] = target: T20, mTfR-1 P324A on Expi293 cells (mouse, UniProt Q62351 1-763)
T20 construct: whole, on cells
Experimental: as §1

[21] = target: T21, mTfR-1 Q327A on Expi293 cells (mouse, UniProt Q62351 1-763)
T21 construct: whole, on cells
Experimental: as §1

[22] = target: T22, mTfR-1 S328A on Expi293 cells (mouse, UniProt Q62351 1-763)
T22 construct: whole, on cells
Experimental: as §1

[23] = target: T23, mTfR-1 S329A on Expi293 cells (mouse, UniProt Q62351 1-763)
T23 construct: whole, on cells
Experimental: as §1

[24] = target: T24, mTfR-1 G330A on Expi293 cells (mouse, UniProt Q62351 1-763)
T24 construct: whole, on cells
Experimental: as §1

[25] = target: T25, mTfR-1 P335A on Expi293 cells (mouse, UniProt Q62351 1-763)
T25 construct: whole, on cells
Experimental: as §1

[26] = target: T26, mTfR-1 K380A on Expi293 cells (mouse, UniProt Q62351 1-763)
T26 construct: whole, on cells
Experimental: as §1

[27] = target: T27, mTfR-1 V382A on Expi293 cells (mouse, UniProt Q62351 1-763)
T27 construct: whole, on cells
Experimental: as §1

[28] = target: T28, mTfR-1 L383A on Expi293 cells (mouse, UniProt Q62351 1-763)
T28 construct: whole, on cells
Experimental: as §1

[29] = target: T29, mTfR-1 K384A on Expi293 cells (mouse, UniProt Q62351 1-763)
T29 construct: whole, on cells
Experimental: as §1

T17 sequence (Q62351 whole entry Q274A): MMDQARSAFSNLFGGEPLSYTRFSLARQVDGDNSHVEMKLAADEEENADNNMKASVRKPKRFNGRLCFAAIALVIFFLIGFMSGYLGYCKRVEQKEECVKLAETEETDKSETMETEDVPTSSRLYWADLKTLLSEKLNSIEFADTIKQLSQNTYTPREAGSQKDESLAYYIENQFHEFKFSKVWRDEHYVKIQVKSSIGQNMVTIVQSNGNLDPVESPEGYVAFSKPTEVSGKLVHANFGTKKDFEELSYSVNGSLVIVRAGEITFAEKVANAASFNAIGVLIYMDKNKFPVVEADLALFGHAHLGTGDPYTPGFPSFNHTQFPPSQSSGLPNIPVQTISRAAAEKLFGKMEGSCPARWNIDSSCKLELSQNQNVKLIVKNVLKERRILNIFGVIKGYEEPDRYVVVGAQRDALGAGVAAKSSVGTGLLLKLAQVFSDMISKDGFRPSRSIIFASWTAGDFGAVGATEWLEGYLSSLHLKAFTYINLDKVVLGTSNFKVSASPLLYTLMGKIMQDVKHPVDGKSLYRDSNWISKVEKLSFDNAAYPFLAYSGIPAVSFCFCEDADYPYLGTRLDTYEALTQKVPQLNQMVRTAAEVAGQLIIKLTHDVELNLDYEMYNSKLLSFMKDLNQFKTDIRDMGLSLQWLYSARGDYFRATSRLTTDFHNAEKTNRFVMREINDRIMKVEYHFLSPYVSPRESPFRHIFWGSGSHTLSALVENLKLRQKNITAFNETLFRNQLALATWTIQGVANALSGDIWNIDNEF
T14 sequence (Q62351 whole entry S231A): as the sequence (Q62351 whole entry Q274A) above, with S231A, A274Q counted along it
T22 sequence (Q62351 whole entry S328A): as the sequence (Q62351 whole entry Q274A) above, with A274Q, S328A counted along it
T13 sequence (Q62351 whole entry V230A): as the sequence (Q62351 whole entry Q274A) above, with V230A, A274Q counted along it
T19 sequence (Q62351 whole entry I279A): as the sequence (Q62351 whole entry Q274A) above, with A274Q, I279A counted along it
T18 sequence (Q62351 whole entry S275A): as the sequence (Q62351 whole entry Q274A) above, with A274Q, S275A counted along it
T5 sequence (Q62351 whole entry S196A): as the sequence (Q62351 whole entry Q274A) above, with S196A, A274Q counted along it
T12 sequence (Q62351 whole entry T228A): as the sequence (Q62351 whole entry Q274A) above, with T228A, A274Q counted along it
T6 sequence (Q62351 whole entry S197A): as the sequence (Q62351 whole entry Q274A) above, with S197A, A274Q counted along it
T11 sequence (Q62351 whole entry P227A): as the sequence (Q62351 whole entry Q274A) above, with P227A, A274Q counted along it
T26 sequence (Q62351 whole entry K380A): as the sequence (Q62351 whole entry Q274A) above, with A274Q, K380A counted along it
T8 sequence (Q62351 whole entry Q200A): as the sequence (Q62351 whole entry Q274A) above, with Q200A, A274Q counted along it
T25 sequence (Q62351 whole entry P335A): as the sequence (Q62351 whole entry Q274A) above, with A274Q, P335A counted along it
T7 sequence (Q62351 whole entry G199A): as the sequence (Q62351 whole entry Q274A) above, with G199A, A274Q counted along it
T1 sequence (Q62351 whole entry): as the sequence (Q62351 whole entry Q274A) above, with A274Q counted along it
T20 sequence (Q62351 whole entry P324A): as the sequence (Q62351 whole entry Q274A) above, with A274Q, P324A counted along it
T27 sequence (Q62351 whole entry V382A): as the sequence (Q62351 whole entry Q274A) above, with A274Q, V382A counted along it
T28 sequence (Q62351 whole entry L383A): as the sequence (Q62351 whole entry Q274A) above, with A274Q, L383A counted along it
T24 sequence (Q62351 whole entry G330A): as the sequence (Q62351 whole entry Q274A) above, with A274Q, G330A counted along it
T10 sequence (Q62351 whole entry K226A): as the sequence (Q62351 whole entry Q274A) above, with K226A, A274Q counted along it
T29 sequence (Q62351 whole entry K384A): as the sequence (Q62351 whole entry Q274A) above, with A274Q, K384A counted along it
T23 sequence (Q62351 whole entry S329A): as the sequence (Q62351 whole entry Q274A) above, with A274Q, S329A counted along it
T21 sequence (Q62351 whole entry Q327A): as the sequence (Q62351 whole entry Q274A) above, with A274Q, Q327A counted along it
T9 sequence (Q62351 whole entry M202A): as the sequence (Q62351 whole entry Q274A) above, with M202A, A274Q counted along it
T3 sequence (Q62351 whole entry V194A): as the sequence (Q62351 whole entry Q274A) above, with V194A, A274Q counted along it
T16 sequence (Q62351 whole entry S255A): as the sequence (Q62351 whole entry Q274A) above, with S255A, A274Q counted along it
T2 sequence (Q62351 whole entry Q193A): as the sequence (Q62351 whole entry Q274A) above, with Q193A, A274Q counted along it
T4 sequence (Q62351 whole entry K195A): as the sequence (Q62351 whole entry Q274A) above, with K195A, A274Q counted along it
T15 sequence (Q62351 whole entry N253A): as the sequence (Q62351 whole entry Q274A) above, with N253A, A274Q counted along it

Row | Binder | % double-positive cells vs WT [1] [%] | % double-positive cells vs WT [5] [%] | % double-positive cells vs WT [6] [%] | % double-positive cells vs WT [7] [%] | % double-positive cells vs WT [8] [%] | % double-positive cells vs WT [9] [%] | % double-positive cells vs WT [10] [%] | % double-positive cells vs WT [11] [%] | % double-positive cells vs WT [12] [%] | % double-positive cells vs WT [13] [%] | % double-positive cells vs WT [14] [%] | % double-positive cells vs WT [17] [%] | % double-positive cells vs WT [18] [%] | % double-positive cells vs WT [19] [%] | % double-positive cells vs WT [20] [%] | % double-positive cells vs WT [21] [%] | % double-positive cells vs WT [22] [%] | % double-positive cells vs WT [23] [%] | % double-positive cells vs WT [24] [%] | % double-positive cells vs WT [25] [%] | other results
1 | B1 | 100 | 123 | 111 | 72 | 90 | 166 | 157 | 77 | 68 | 58 | 283 | 182 | 97 | 177 | 27 | 83 | 50 | 212 | 307 | 169 | % double-positive cells vs WT [2]: 152%; % double-positive cells vs WT [3]: 184%; % double-positive cells vs WT [4]: 236%; % double-positive cells vs WT [15]: 26%; % double-positive cells vs WT [16]: 14%; % double-positive cells vs WT [26]: 193%; % double-positive cells vs WT [27]: 357%; % double-positive cells vs WT [28]: 328%; % double-positive cells vs WT [29]: 187%
2 | B2 | 100 | 47 | 56 | 36 | 72 | 103 | 77 | 47 | 65 | 47 | 101 | 84 | 54 | 85 | 25 | 85 | 22 | 73 | 87 | 75 | % double-positive cells vs WT [26]: 81%; % double-positive cells vs WT [27]: 111%; % double-positive cells vs WT [28]: 121%; % double-positive cells vs WT [29]: 85%
3 | B3 | 100 | 74 | 100 | 69 | 66 | 81 | 111 | 63 | 89 | 81 | 65 | 87 | 70 | 74 | 39 | 124 | 141 | 18 | 90 | 94 | % double-positive cells vs WT [2]: 63%; % double-positive cells vs WT [3]: 60%; % double-positive cells vs WT [4]: 63%; % double-positive cells vs WT [15]: 87%; % double-positive cells vs WT [16]: 56%; % double-positive cells vs WT [26]: 66%; % double-positive cells vs WT [27]: 82%; % double-positive cells vs WT [28]: 73%; % double-positive cells vs WT [29]: 35%

Source: patent US20210403591A1 (OSSIANIX, published 2021)
